Experimental data: paper PMC314469 (2004)
Where two headings read alike, the source gives them in different places. No end group written: not given here.

T1: GST-Abp1 SH3 domain (S. cerevisiae, UniProt P15891 532-592)
T1 chain: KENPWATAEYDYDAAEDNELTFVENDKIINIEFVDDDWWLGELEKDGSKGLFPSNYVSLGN

B1: BOI2 SH3 domain (protein)
chain: GNFPMYIAINEYFKRMEDELDMKPGDKIKVITDDEEYKDGWYFGRNLRTNEEGLYPVVFTQKITV
B2: Srv2 peptide(s) on the Abp1 SPOT membrane (peptide)
chain: PPPRPKKP
modifications: also: bound to cellulose membrane
B3: Yir003w peptide(s) on the Abp1 SPOT membrane (peptide)
chain: RPKRRAPPPVPKKP
modifications: also: bound to cellulose SPOT membrane
B4: RVS167 SH3 domain (protein)
chain: PGVETVTALYDYQAQAAGDLSFPAGAVIEIVQRTPDVNEWWTGRYNGQQGVFPGNYVQLNKN
B5: YFR024C SH3 domain (protein)
chain: TSSPKAVALYSFAGEESGDLPFRKGDVITILKKSDSQNDWWTGRVNGREGIFPANYVELV
B6: Ark1 peptide(s) on the Abp1 SPOT membrane (peptide)
chain: SKDKKTKPTPPPKP
modifications: also: bound to cellulose membrane (SPOT)
B7: Scp1 peptide(s) on the Abp1 SPOT membrane (peptide)
chain: LSTKKPRPPVKSKP
modifications: also: bound to cellulose membrane
B8: Prk1 peptide(s) on the Abp1 SPOT membrane (peptide)
chain: GKDKSRPPRPPPKP
modifications: also: bound to cellulose membrane (SPOT)

Columns and labels:
Test in all cases: SPR
YMR192 peptide = target: YMR192 peptide
YJR083C peptide = target: YJR083C peptide
YPR171 peptide = target: YPR171 peptide
GST-Abp1 SH3 domain [1] = target: T1, GST-Abp1 SH3 domain
GST-Abp1 SH3 domain [2] = target: T1, GST-Abp1 SH3 domain
RVS167 SH3 domain = target: B4

Binder | Kd (YMR192 peptide) | Kd (YJR083C peptide) | Kd (YPR171 peptide) | Kd (GST-Abp1 SH3 domain [1]) | Kd (GST-Abp1 SH3 domain [2]) | Kd (RVS167 SH3 domain)
B1 | > 100 µM | > 100 µM | > 100 µM | – | – | –
B2 | – | – | – | 75 µM | 75 µM | –
B3 | – | – | – | 0.9 µM | 0.92 µM | 13 µM
B4 | – | – | 16 µM | – | – | –
B5 | – | – | 4.8 µM | – | – | –
B6 | – | – | – | 24 µM | 24 µM | > 100 µM
B7 | – | – | – | 14 µM | 14 µM | –
B8 | – | – | – | 22 µM | 22 µM | > 100 µM
